# According to the DeepSol protein solubility set:
# Assay: soluble on expression in E. coli; label from the status in PepcDB or PDB records
row,Sequence,soluble on expression in E. coli
1,MARTAAALHILVKHKEQADDILAQLKKGAKFHVLAKKYSTCPSGKKGGDLGEFRQGQMVPAFDKACFQGEVLTPQLVKTKFGWHVVKVLYRT,not soluble
2,MASAHQTPADANGGESRDEILRAAAELFMEFGYAATSIDAVAQRLGSTKGRIYHHYRSKADLFFDVQVTAMNRLTAQVEPLAREGGGAVGRLAAMALRHTQILLKEMPMQKVAVQGLERHLLEASSAAKRLRAVVKMRDDYEQMFVEVIDDGIREGSFVDLPPRLLSKPFFGALNWATVWYSQRRLQSEEAIDDIAHALAAYALRGLLKDSNDEAARETALFRYDLG,not soluble
3,MASALRPPRVPKPKGVLPSHYYESFLEKKGPCDRDYKKFWAGLQGLTIYFYNSNRDFQHVEKLNLGAFEKLTDEIPWGSSRDPGTHFSLILRNQEIKFKVETLECREMWKGFILTVVELRVPTDLTLLPGHLYMMSEVLAKEEARRALETPSCFLKVSRLEAQLLLERYPECGNLLLRPSGDGADGVSVTTRQMHNGTHVVRHYKVKREGPKYVIDVEQPFSCTSLDAVVNYFVSHTKKALVPFLLDEDYEKVLGYVEADKENGENVWVAPSAPGPGPAPCTGGPKPLSPASSQDKLPPLPPLPNQEENYVTPIGDGPAVDYENQDVASSSWPVILKPKKLPKPPAKLPKPPVGPKPEPKVFNGGLGRKLPVSSAQPLFPTAGLADMTAELQKKLEKRRALEH,soluble
4,MASCQKSIFLGRLTTFTDSNISPTSLIFSSKMSSRTLRSSSSSNAISTKTQPKTEEAPLIPVTKGPVIRMTSNMADKAQNDHSMWPSTSKFESIWGNVLGERVNKSTIAAIREGMKIENKVTCGCRPGQDCSTNPACRCFQTASRLREHFGSDILTRGKPVKTVDTMYWDRPMFACSGSCGCKGQCNLNALQDICEDPAKKFKITRTDGKGFCVYSARVIKKGSPVLEFSGEITDYLAIKSNADIEQYSIMLYNNETKLCDFFSKEENLSSKYKKILWSAYRSKAWINPLNRGNCARFFSHGCKANMELGRVFQGGFSPADMKIVLFAKEIIKPGTELTFNYGPSYKEIFLGNKCLCEACKKEAVKKLENAVKRILKNSRDPSEPPSKKKSVKKLDGKENVR,not soluble
5,MASFIDLSSADLSPLSGALHGPDRVARALLIQGGALVPPRPMLWPCAGDMLNGLHILGDLHAPDVDLLVAKRVVAGGSGAHLKLDDQLVYAEGAYPYYVQHWYQHDIARQAWDFDAPVTHRLDRAFVITHFNFVWGHWLTEMYPKLFVIRALNAAGITAPLLLPRTAPGYVARIVRMMLPDQEIVTYDPRDEAVEIGAALLPHMLNRNYVFHDFLRWNLEREALSFTKGGDADMLFVSRGGVRTAQSFRELENEAEIEGLAQEAGLTLVRPETLGWDQQARLFSRARLVAGEFGSGLHNALLSPQGCQVVSLNWLVEVQSRIGNFRRHDVGYILPADGQARLYSIEPQANQPFTIDPVEFRQKLAIAVDRAQARKAMAGWDDAPFPVDTPELRLLEHHHHHH,soluble
6,MASGTASMQRPSIEKEPYYHGFLPREDVKTVLKNNGDFVIRISEPQAGSPRSNILSVMHCVPPMEEEIKHYVIKTKGDKIFIEKVSFLSIPEMVEWHLTKKESVQKDVFLIKAISRQAWELDHDNIEPLKKLGEGAFGEVMMGTMKFRKGGKSVQVAIKQAKLSNLTKEQIKEFMGEARVMRSLSHPHVVRFYGVPRRRVNVALCRSLNEFLAKCHRKLRCATPFFVCMSVNWLSVLNELRVFLE,not soluble
7,MASIAVCPGSFDPVTYGHLDIIKRGAHIFEQVYVCVLNNSSKKPLFSVEERCELLREVTKDIPNITVETSQGLLIDYARRKNAKAILRGLRAVSDFEYEMQGTSVNRVLDESIETFFMMANNQYSFLSSSIVKEVARYDGSVSEFVPPEVELALQQKFRQGGSHHHHHH,soluble
8,MASIINKQIISPTGRNMEIINYEILKKYPLCDRCFGRLYAKLLHTTNTERGRALKLYKALELEAKIKKAKEKGINYEEELELLKALAKSGVDEIRLEDIEIEKENCPWCRGIFNKQKMEKLLNKAIELLKEYDFDTFLIGTHIPEEIKDLEKEIETEFMESIKQEFGREFGKMLAVRLDKAPDKEYPDIVVHINPYTEEIYLQINPLFIKGRYRKLVRGIPQTRWPCRKCRGKGCELCNYTGKKYPISVEEIIAKPFLEATKGVDAKFHGAGREDIDVRMLGDGRPFVLEIKEPKIRKIDLNKIAEEINKDGRVEVLNLEFGVRKDKVIFKNTPHRKTYRALVECSDKITDEELKLLEKELENRTIYQKTPKRVLHRRADLERIRKVYKVKTSKVDDNHFEMIIYCDGGLYIKELISGDDGRTNPSVSSILNKNCICKELDVLKIHDNNLLEKG,soluble
9,MASQPTNAVSAEQLMLSKMQAMQAQVQPPEFIVSANPLDQQALNAPLSFSQAMTNVLDTVNQHQSAASQKMTAVETGQSDDLVGAMVASQKASLSFNALMQVRNKVVASFEDIMKMPV,not soluble
10,MASRLFGVKCHNTDSEPLKNEDLLKNLLTMGVDIDMARKRQPGVFHRMITNEQDLKMFLLSKGASKEVIASIISRYPRAITRTPENLSKRWDLWRKIVTSDLEIVNILERSPESFFRSNNNLNLENNIKFLYSVGLTRKCLCRLLTNAPRTFSNSLDLNKQMVEFLQAAGLSLGHNDPADFVRKIIFKNPFILIQSTKRVKANIEFLRSTFNLNSEELLVLICGPGAEILDLSNDYARRSYANIKEKLFSLGCTEEEVQKFVLSYPDVIFLAEKKFNDKIDCLMEENISISQIIENPRVLDSSISTLKSRIKELVNAGCNLSTLNITLLSWSKKRYEAKLKKLSRFAHHHHHH,soluble
11,MASRVDETTVPSYYYYVDPETTYTYQQPNPLQDLISVYGLDDISRQVARTNLDGTKAVKLRKSYKNQIADLSGKFSTIPTRENGKGGQIAHILFQNNPDMMIQPPQQGQNMSEQQWREQLRNRDIALFQPPNFDWDLCSSVLSQFERSYPSEFANQNQGGAQAPFDIDDLAFDLDGTGKSQSGSNSGNNSKKRKNKSSGSSMATPTHSDSHEDMKRRRLE,soluble
12,MASSGYLYSLVAEDGVWQAFVSKAKLSRERAVALHKALRELTALLAIADRGRLQKGLKGREKFLKVFPRLKAELVEHISQLHALADHAEKLHRGCTISNVVADSFSAASDILSLLGLFLAPVTAEGSLVLSATGLGLGVAATVTDVATSIVEETSRVLDEVEAAPTGTHVLGEAGTSVDRIASKVPQATRDITRDLEALEQHMNALRLVRANPRLEEDARILATTGSISAQRAMQVRASLKGTPLAMSNEARIQRATAAGAALWSDVDSLVKESKHLYEGSASESAEALRKLARELEEKLEGLMEFYKTI,soluble
13,MASTARSLRYALAILTTSLVTPSVWAHAHLTHQYPAANAQVTAAPQAITLNFSEGVETGFSGAKITGPKNENIKTLPAKRNEQDQKQLIVPLADSLKPGTYTVDWHVVSVDGHKTKGHYTFSVK,soluble
14,MASTDTYNPTRDDFAAMLDESFAGGNLQESSVIKGKVVAIEKDMAVIDVGLKTEGRVPLREFAGPGRDNEIKVGDTVEVFLDRIENALGEAVLSRDKARREESWGKLEKAFQNNEKVFGVIFNQVKGGFTVDLDGAVAFLPRSQVDIRPIRDVAPLMNNSQPFQILKMDRRRGNIVVSRRTVLEETRAEQRQELVQNLEEGQVIDGVVKNITDYGAFVDLGGIDGLLHVTDIAWRRVNHPTEVLTIGQTVKVKIIKINHETHRISLGMKQLLDDPWQGIEAKYPLNARFTGRVTNITDYGAFVELEPGIEGLIHVSEMSWTKKNMHPGKIVSTSQEVEVQVLEVDSVKRRISLGLKQTMRNPWEVFVEKHPVGSTVEGEVKNKTEFGLFLGLDGDVDGMVHLSDLDWKLPGEQVIDNFKKGDMVKAVVLDVDVEKERISLGVKQLEGDPFAEPGDVKKGAVVTCEVLDVKESGIDVQIVGTDFNTFIKRSELARDRNDQRSDRFAVGEKVDARVIQFDKKARKVQVSIKALEVAEEKEAIAQYGSSDSGATLGDILGTALKQRDKLEHHHHHH,soluble
15,MASTVLNVPIAQPENGSSDKIPKWSARAIKSLAMGELEARKLKYPSTGTEAILMGILVEGTSTVAKFLRGNGVTLFKVRDETLSLLGKSDMYFFSPEHPPLTEPAQKAIAWAIDEKNKSDVDGELTTAYLLLGVWSQKDSAGRQILEKLGFNEDKAKEVEKSMNEDVDLSFKKQGQLEHHHHHH,soluble
